From publication PMC12062102, “Dual Targeting of Neuropilin-1 and Glucose Transporter for Efficient Fluorescence Imaging of Cancer” (Molecular Imaging and Biology, 2025)

What was measured:
[1] = Method: Probe NGF (10 μM) was added to a mixture of H2O (0.5 mL) and n-octanol (0.5 mL), shaken thoroughly, and centrifuged for 3 min. The absorbance (A) of NGF in both H2O and n-octanol was measured using a UV-vis absorption spectrometer.
[2] = Aqueous stability of NGF in PBS; type: physicochemical; conditions: 3 μM in PBS, 37°C, 48 h incubation, UV-vis absorbance A/A0
[3] = 3 μM in 10% (v/v) mouse serum, 37°C, 48 h incubation, UV-vis absorbance A/A0
Method: NGF solution (3 μM) was prepared in PBS and 10% (v/v) mouse serum, and the initial absorbance (A0) was measured. Then NGF was incubated with PBS and mouse serum at 37°C, and the absorbance (A) was recorded at 4, 8, 12, 24, and 48 h, respectively. The stability of the probe was evaluated based on the ratio of A/A0. For the photostability, NGF solution (3 μM) was prepared in methanol, and the initial absorbance (A0) was measured. Then NGF was then subjected to laser irradiation, and the absorbance measurements (A) were recorded at 5, 10, 15, 20, and 30 min, respectively. The stability of the probe was evaluated based on the ratio of A/A0.

[4] = Photostability of NGF under laser irradiation; type: physicochemical; conditions: 3 μM in methanol, laser irradiation 30 min, UV-vis absorbance A/A0
[5] = Photophysical properties (absorption, emission, ε, ΦF); type: physicochemical
Method: To investigate the spectral characteristics of probe, NGF (25 μM) was prepared using methanol, and the NGF stock solution was diluted to various concentrations (0.5, 1, 2, 3, and 4 μM) with both methanol or water as solvents. The absorption spectra at various concentrations were recorded using a UV–vis absorption spectrometer. To better understand how the solvent affects the fluorescence properties of NGF, the fluorescence emission spectra of 4 μM NGF were analyzed in both methanol and water. The molar absorption coefficient (ε), fluorescence quantum yield (ΦF), as well as the stability of NGF were investigated, and the details were provided in the Supporting Information.
where, Ix is the measured integrated emission intensity; η is the refractive index of the solvent; A is the absorbance of the solution; the subscript x denotes the probe; st denotes the reference compound.

MDA-MB-231 cells = experiment: Flow cytometry / confocal imaging and blocking study in MDA-MB-231 cells; type: cell-based, human
Method: (§1) MDA-MB-231, HCT116, and NCI-H1299 cells in logarithmic growth phase were seeded in 6-well plate and incubated at 37 ℃ in a 5% CO2 humidified incubator for 12 h, then the cells were fixed with 4% paraformaldehyde containing 1% TritonX-100 overnight at 4 ℃. Next, cells were treated with NGF (2 μM) for 1 h, stained with DAPI for 5 min, and finally the fluorescent images were captured using laser scanning fluorescence confocal microscopy (Olympus IX51). Images were captured using a U-LH100 HG mercury lamp with a WIY (Cy5 channel) filter and a 200 ms exposure time. A 10 × eyepiece and a 20 × objective were used for a total magnification of 200 × . A scale bar of 50 μm was included for reference.
(§2) Cancer cells MDA-MB-231, NCI-H1299 and HCT116 in logarithmic growth phase were harvested and transferred to sterile tubes with DMEM medium at a density of 2 × 10^5 cells per tube. […] Subsequently, the cells were resuspended in 0.5 mL of PBS buffer, and about 2 × 10^4 target cells were extracted for flow cytometry analysis (FACS Verse, BD) with FL4 channel, and the mean fluorescence intensity was quantified using FlowJo software.
(§3) For the blocking study, the cells of HCT116, NCI-H1299, and MDA-MB-231 were pretreated with the D-glucose (50 μM), NRP1 peptide (50 μM), and D-glucose + NRP1 peptide (50 μM) for 30 min. […] Then the fluorescence signals were detected by flow cytometry and microscopy imaging.

HCT116 cells = experiment: Flow cytometry / confocal imaging and blocking study in HCT116 cells; type: cell-based, human
Method: as §1, §2, §3

NCI-H1299 cells = experiment: Confocal fluorescence imaging in NCI-H1299 cells; type: cell-based, human; conditions: NCI-H1299 (NRP1- and GLUT1-negative), NGF 2 μM, 1 h
Method: as §1
Cancer cells MDA-MB-231, NCI-H1299 and HCT116 in logarithmic growth phase were harvested and transferred to sterile tubes with DMEM medium at a density of 2 × 10^5 cells per tube. Various concentrations of NGF (0.125, 0.25, 0.5, 1, and 2 μM) were added, and the cells were incubated in a humidified incubator with 5% CO2 at 37 ℃ for 1 h. Subsequently, the cells were resuspended in 0.5 mL of PBS buffer, and about 2 × 10^4 target cells were extracted for flow cytometry analysis (FACS Verse, BD) with FL4 channel, and the mean fluorescence intensity was quantified using FlowJo software.

MDA-MB-231 tumor = experiment: In vivo IVIS fluorescence imaging, MDA-MB-231 tumor-bearing mice; set-up: species or system Balb/c nude mice; conditions: 25 μM NGF, 200 μL i.v., imaging up to 72 h
Method: (§4) The SPF female Balb/c nude mice (4–5 weeks old) were obtained from Changzhou Cavens Laboratory Animal Co., LTD (Changzhou, China). Tumor models were created by subcutaneously injecting 0.5 ~ 1 × 10^7 MDA-MB-231, HCT116 or NCI-H1299 cells in 100 μL PBS into the right forelimb of the nude mice. Imaging studies were conducted once the tumor volume reached approximately 100 mm^3. All animal experiments requiring the use of mice were approved by the animal care committee of Shanghai University (ECSHU 2024–004).
(§5) Animal fluorescence imaging was conducted using an IVIS Imaging spectroscopy system (PerkinElmer Inc., USA). MDA-MB-231, HCT116, and NCI-H1299 tumor-bearing mice (n = 3–5) were intravenously injected with 25 μM NGF (200 μL) via the tail vein. Following injection, mice were anesthetized with a 2% v/v isoflurane/oxygen mixture at a flow rate of […] to maintain stable physiological conditions during imaging. Subsequently, long-term optical imaging observations of tumor-bearing mice were performed using the IVIS Spectrum imaging system (PerkinElmer, USA). Imaging scans were conducted at various time points (1, 2, 4, 6, 8, 12, 24, 36, 48, 60, and 72 h) after NGF administration. The excitation wavelength (λex) was set to 745 nm and the emission wavelength (λem) was set to 840 nm for optimal fluorescence signal acquisition.

HCT116 tumor = experiment: In vivo IVIS fluorescence imaging, HCT116 tumor-bearing mice; set-up: species or system Balb/c nude mice; conditions: 25 μM NGF
Method: as §4, §5

NCI-H1299 tumor = experiment: In vivo IVIS fluorescence imaging, NCI-H1299 tumor-bearing mice; set-up: species or system Balb/c nude mice; conditions: 25 μM NGF, 200 μL i.v., n = 3–5
Method: as §4, §5

[6] = In vivo IVIS fluorescence imaging, signal clearance and persistence in tumor-bearing mice; set-up: species or system Balb/c nude mice; conditions: 25 μM NGF, 200 μL i.v.
Method: as §4, §5

SMILES: CC(C)C[C@H](NC(=O)[C@H](C)NC(=O)CCOCCOCCOCCOCCn1cc(CCC[N+]2=C(C=CC3=C(Cl)C(=CC=C4N(CCCc5cn([C@H]6C(O)O[C@H](CO)[C@@H](O)[C@@H]6O)nn5)c5ccccc5C4(C)C)CCC3)C(C)(C)c3ccccc32)nn1)C(=O)N[C@@H](CCCCN)C(=O)N[C@@H](C)C(=O)N[C@@H](CC(=O)O)C(=O)N[C@@H](CCCCN)C(=O)O (some centres unmarked) [NGF]
- logP [1]: -0.95 ± 0.07
- absorbance as % of initial absorbance (A0) in PBS [2]: 97.7%
- absorbance as % of initial absorbance (A0) in 10% mouse serum [3]: 95.2%
- absorbance as % of A0 after laser irradiation [4]: 56.7%
- fluorescence intensity in methanol ([5]; 4 μM in methanol): 12365 a.u.
- maximum absorbance ([5]; 4 μM in methanol): 1.06
- absorption peak (λmax) in MeOH ([5]; MeOH): 783 nm
- fluorescence emission peak (λem) in MeOH ([5]; MeOH, λex = 750 nm): 807 nm
- aggregation in aqueous solution ([5]; inferred from lower absorbance and fluorescence in H2O than in MeOH): some degree of aggregation
- extinction coefficient ε in n-octanol ([5]; n-octanol): 124367 M⁻¹ cm⁻¹
- uptake relative to mono-receptor block conditions (MDA-MB-231 cells; MDA-MB-231, NGF 2 μM 1 h, pre-treatment 30 min with D-glucose (50 μM) or NRP1 peptide (50 μM), flow cytometry mean fluorescence intensity): 1.7–2.5 times
- cellular internalization (confocal fluorescence) (MDA-MB-231 cells; MDA-MB-231, NGF 2 μM, 1 h): significantly internalized
- uptake relative to mono-receptor block conditions (HCT116 cells; HCT116, NGF 2 μM 1 h, pre-treatment 30 min with D-glucose (50 μM) or NRP1 peptide (50 μM), flow cytometry mean fluorescence intensity): 1.4–1.5 times
- cellular internalization (confocal fluorescence) (HCT116 cells; HCT116, NGF 2 μM, 1 h): substantial internalization
- cellular fluorescence (confocal) (NCI-H1299 cells): minimal fluorescence
- retention in tumor post-injection (MDA-MB-231 tumor): at least 72 h
- time post-injection at which tumor could be clearly identified (HCT116 tumor; 200 μL i.v. tail vein, n = 3–5, λex 745 nm / λem 840 nm): 1 h
- retention in tumor post-injection (HCT116 tumor; 200 μL i.v., imaging up to 72 h): at least 72 h
- tumor fluorescence intensity (NCI-H1299 tumor): comparatively weak
- time for fluorescent signal to clear from non-target organs [6]: ≤ 12 h
